Source: patent US20050107601A1

Tests used:
[1] = target: erbB receptors on primary chick myotube cultures; test: cell-based or functional assay
[2] = target: erbB receptors on primary chick myotube cultures; test: radioligand binding: 0.1 nM 125I-IG-EGF on chick myotubes, 2 hrs on ice, with or without 1 µM cold IG-EGF; cpm bound

For “Recombinant human NRG isolated EGF-like domain construct (amino acids 177-246 of the human β1 form) (from UniProt Q02297 177-246) (ligand)”, which duration of p185 phosphorylation after the ligand is washed out (1 nM, 45 min treatment), chick myotubes [1] is on record?
The duration of p185 phosphorylation after the ligand is washed out (1 nM, 45 min treatment), chick myotubes was less than 1 h.

With “Recombinant human NRG IG-EGF domain construct (amino acids 14-246 of the human β1 form) (from UniProt Q02297 14-246) (ligand)” as the substance, how does the duration of p185 phosphorylation after the ligand is washed out (1 nM, 45 min treatment), chick myotubes [1] read?
The duration of p185 phosphorylation after the ligand is washed out (1 nM, 45 min treatment), chick myotubes was 8 h.

And the erbB receptor (p185) tyrosine phosphorylation on chick myotubes, 45 min, anti-phosphotyrosine western blot; potency relative to the EGF form [1]?
Its erbB receptor (p185) tyrosine phosphorylation on chick myotubes, 45 min, anti-phosphotyrosine western blot; potency relative to the EGF form is 4 fold.

What about the specific binding as percent of total binding [2] of the same substance?
Its specific binding as percent of total binding is 25%.
